Assay [1] deals with GST-G547 IRE1α (His-GST-tagged IRE1α residues G547-L977) (UniProt O75460). Briefly: native gel or EMSA; native polyacrylamide gel of purified GST-G547 IRE1α and G547 IRE1α; conditions not given. A general note: A gel shift assay detects complexes by their altered migration in electrophoresis.
The target is the same in assay [2].
In assay [3] the target is autophosphorylated G547 IRE1α (residues G547-L977, incubated with Mg/ATP) (human) (UniProt O75460).

Among the data in PMC3928614 are stoichiometry N, RNase activity (FRET derepression assay) of fully dephosphorylated GST-G547 IRE1α and RNase activity (FRET-derepression assay) against concentration of autophosphorylated G547 IRE1α; activity from 50 nM, maximal values, retold here.

Broadly, the stoichiometry N is the number of molecules, sites or subunits per partner or assembly.

“GST-G547 IRE1α (His-GST-tagged IRE1α residues G547-L977) (from UniProt O75460 547-977)” had a stoichiometry N in assay [1] of 2. The substance further gave an RNase activity (FRET derepression assay) of fully dephosphorylated GST-G547 IRE1α at 25 nM, the lowest concentration tested (% of full activity) in assay [2] of 70.
In turn, “autophosphorylated G547 IRE1α (residues G547-L977, incubated with Mg/ATP) (from UniProt O75460 547-977) (domain or fragment)” returned an RNase activity (FRET-derepression assay) against concentration of autophosphorylated G547 IRE1α; activity from 50 nM, maximal at 350 nM in assay [3] of 114 nM.
